# Results published in patent publication US20180186880A1 (TRELLIS BIOSCIENCE, published 2018).
# T1: TIM-3 ECD (extracellular domain of T cell immunoglobulin and mucin domain 3 protein) (UniProt Q8TDQ0 22-202, limits assumed)
# T1 construct: extracellular domain; also called CD366
# T1 sequence (looked up): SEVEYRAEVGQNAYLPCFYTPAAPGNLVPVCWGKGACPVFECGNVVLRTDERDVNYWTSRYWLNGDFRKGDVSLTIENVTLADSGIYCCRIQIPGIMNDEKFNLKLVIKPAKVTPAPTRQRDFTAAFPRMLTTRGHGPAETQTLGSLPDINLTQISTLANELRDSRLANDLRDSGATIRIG
# Target: T1, TIM-3 ECD (extracellular domain of T …)
# Assay: adsorption ELISA on TIM-3 ECD, serial dilutions of purified mAb, estimate of binding affinity
# Method: Purified mAbs were tested in adsorption ELISA using TIM-3 ECD, generated by Trellis in mammalian cells.
row,Binder,Affinity
1,"TRL6099 (antibody, V domains shown, Lambda light chain) VH: QVQLVESGAEVKKPGASVKVSCKAFNYTFTSYGISWVRQTPEHGLEWMGWITNSNSNSAQKFQGRVSMTTDTSTSTAYMQLRSLSSDDTAVYYCARIYIDYNNYGLDVWGQGTTVTVSS VL: not shown",0.011 nM
2,"TRL6042 (antibody, V domains shown, Native human mAb produced recombinantly; Kappa light chain; also called TIM-3 TRLmAb 6042) VH: QVQLVESGAEVKKPGESLKISCEGSGYKFTSYWIGWVRQMPGRGPEWMGLIYPSDSDTRYSPSFRGQVTISVDKTISTAYLQWSSLKTSDTAIYYCARLLLATECTSDSCFGDAFDIWGQGTMVTVSS VL: DIVLTQSPTFLSASVGDRVTITCRASQGISSYLAWYQQKPGKAPKLLLYAASTLQSGVPSRFSGSRSGTEFTLTISSLQPEDFASYYCQQFHNYPFTFGGGTKVEIKR",5 nM
3,"TRL6120 (antibody, V domains shown, Lambda light chain; also called TIM-3 TRLmAb 6120) VH: QVQLVESGGGVVQPGRSLRLSCVASGFIFRTYAMHWVRQAPGKGLEWVAVIWPDGSERYYSDSTKGRFTVSRDNSKNTLFLQMNSLRVDDTAMYYCFARGYSDSDYADHWGRGTRVTVSS VL: DIVMTQSPSVSVSPGQTARITCSGDALSTKFAYWYQQKSGQAPVLVIYEDNKRPSGIPERFSGSGSGTMATLSVSEAQVEDEADYYCFSSDSSGNLFMFGGGTKLTVL",28 nM
4,"TRL6061 (antibody, V domains shown, Lambda light chain) VH: QVQLVESGGGVVQPGRSLRLSCAASGFMFSTSAMHWVRQTPGKGLEWLAVIWHDGSEKYYADSVKGRFSISRDNYRDTLYLQMNNLRVEDTAIYYCRGGDVYEIWGQGTMVAVSS VL: DDIMLTQPPSVSVSPGQTARITCSGDAVAKRYVYWYQQKSGQAPVLVMYEDNKRPSGIPERFSGSSSGTKATLTITGALVEDEADYYCYSTDSSGNLGAFGGGSKLTVL",0.005 nM
